Results on two molecules are retold here after paper PMC3513319, “The Importance of the Interaction of CheD with CheC and the Chemoreceptors Compared to Its Enzymatic Activity during Chemotaxis in Bacillus subtilis” (PLoS ONE, 2012).

In general, Kd refers to the free concentration of one partner at which half of the binding sites on the other are occupied at equilibrium, for simple one-to-one binding. Usually koff stands for the first-order rate constant of dissociation. The term kon denotes the rate constant with which the complex forms. High values mean faster complex formation, low ones slower complex formation.

Test [1] has as its target GST-CheD-F102E (Bacillus subtilis) (UniProt P40404). Briefly: pull-down; 80 µM GST-CheD or GST-CheD-F102E on glutathione beads; 100 µM CheC or receptor fragment added for 10 min; washed with TBS + 1% Triton X-100; eluted with glutathione; SDS-PAGE, Coomassie stain, densitometry.
Test [2] has as its target T1, CheC (Bacillus subtilis, UniProt P40403 1-209).
T1 construct: CheC, CheY-P phosphatase, Bacillus subtilis; also called pTM18 (pGEX-6P-2::cheC2); source: E. coli, overexpressed as GST-CheC, purified (GSTrap), GST removed with PreScission protease; not shown: GST, N-terminal, cleaved
T1 sequence (looked up): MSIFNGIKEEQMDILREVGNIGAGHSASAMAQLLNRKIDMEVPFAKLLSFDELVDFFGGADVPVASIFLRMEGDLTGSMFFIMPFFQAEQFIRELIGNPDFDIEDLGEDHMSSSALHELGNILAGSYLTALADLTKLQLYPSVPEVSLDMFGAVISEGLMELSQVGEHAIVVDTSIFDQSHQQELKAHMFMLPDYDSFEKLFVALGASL
Briefly: SPR; as a1, but with 20 µM CheY in the running buffer and in the injected CheC. The settings on record: both partners purified. (In SPR one partner is held on a chip, and binding of the other changes the refractive index at the surface.)

Test [3] deals with T1, CheC. The test is described as follows: SPR; as a1, but with 20 µM CheY and 5 mM acetyl phosphate (CheYp) in the running buffer and in the injected CheC. The note with it: both partners purified.
Test [4] deals with T1, CheC. The test is described as follows: SPR; Biacore 3000, NTA chip; 500 RU of GST-6xHis-CheD immobilised; CheC injected at different concentrations (80 µl, 20 µl/min); running buffer TKMD (50 mM Tris pH 8.0, 50 mM KCl, 5 mM MgCl2, 0.1 mM DTT); triplicate. The settings on record: both partners purified.

For the molecule “CheC (from UniProt P40403 1-209) (enzyme)”, the percent of the CheC bound by GST-CheD in test [1] was 10%.

B1: GST-6xHis-CheD (enzyme, Bacillus subtilis, UniProt P40404 1-166, looked up)
chain: MSTTEAVVIKVGIADVKIARFPDTIRTSGLGSCVGLVLYDKEKQTAGLVHVMLPDSTLSKTAELNRAKYADTAVQTTIDMLIEAGCRKFALKAKLAGGSEMFKFKSTNDLMKIGPRNVLAIKEQLSLFNIPIISEDTGGSSGRTIEFEPKSCMLHIRTVKQGEKTI
notes: CheD, chemoreceptor glutamine deamidase, Bacillus subtilis; cheD gene amplified from OI1085 genomic DNA, cloned in pGEX-6P-2; Order of the tags by the printed name GST-6xHis-CheD: the 6xHis lies between GST and CheD; Held on the NTA chip by the 6xHis; also called pWY88 (pGEX-6P-2::6xHis-cheD2); source: E. coli, overexpressed, purified (GSTrap); not shown: GST, N-terminal, kept; 6xHis, N-terminal, …
In the test with CheC [2], B1 came in with a Kd of 7.01 µM, a dissociation rate constant (koff) of 0.0743 s⁻¹ and an association rate constant (kon) of 10600 M⁻¹ s⁻¹. Moreover, in the test with CheC [3], the Kd was found to be 0.546 µM, the koff was 0.0976 s⁻¹ and the on-rate (kon) stood at 179000 M⁻¹ s⁻¹. In the test with CheC [4], this molecule displayed a Kd of 3.95 µM, a dissociation rate constant (koff) of 0.0568 s⁻¹ and an on-rate constant (kon) of 14700 M⁻¹ s⁻¹.
